The values below come from article PMC8144572, “Molecular model of a sensor of two-component signaling system” (Scientific Reports, 2021).

Data set [1] deals with the molecule itself. In words: SANS; full-length complex 0.40 mg/ml in D2O buffer, 4.0 M NaCl, 100 mM Na/Na-Pi pD 8.0, 1 mM EDTA, 0.05% DDM; OLIGOMER fit to a mixture of dimers and trimers of dimers (trimer of dimers = six NpSRII/NpHtrII units).
Data set [2] concerns the molecule itself. In words: SAXS; detergent-solubilised (DDM) complex, peak fractions after gel filtration; low salt (150 mM NaCl); 0.57 mg/ml full-length and 0.78 mg/ml truncated complex; BM29 (ESRF); curves fitted with atomistic dimer models with a detergent belt (MEMPROT, CRYSOL3).

B1: full-length transducer NpHtrII from Natronomonas pharaonis (natural protein)
chain: not shown
notes: Sensory rhodopsin II transducer (NpHtrII), Natronomonas pharaonis, UniProt P42259; gene optimised for expression in E. coli; also called cognate transducer; source: E. coli BL21-AI (SAXS) or BL21(DE3) (SANS), co-expressed with NpSRII, solubilised in DDM, purified (Ni-NTA, SEC); not shown: 6xHis-tag (with ENS-linker), C-terminal, kept
On to B1, for which the binding result in data set [1] is reported as “binds”.

B2: full-length NpSRII/NpHtrII complex (complex)
chain 1: MVGLTTLFWLGAIGMLVGTLAFAWAGRDAGSGERRYYVTLVGISGIAAVAYVVMALGVGWVPVAERTVFAPRYIDWILTTPLIVYFLGLLAGLDSREFGIVITLNTVVMLAGFAGAMVPGIERYALFGMGAVAFLGLVYYLVGPMTESASQRSSGIKSLYVRLRNLTVILWAIYPFIWLLGPPGVALLTPTVDVALIVYLDLVTKVGFGFIALDAAATLRAEHGESLAGVDTDAPAVAD
chain 2: not shown
notes: Sensory rhodopsin II (NpSRII), Natronomonas pharaonis, UniProt P42196; no limits stated; as m1; Sensory rhodopsin II transducer (NpHtrII), Natronomonas pharaonis, UniProt P42259; as m2; also called sensory rhodopsin II/transducer complex; full-length phototaxis complex; source: E. coli BL21-AI (SAXS) or BL21(DE3) (SANS), co-expressed, solubilised in DDM, purified (Ni-NTA, SEC); not shown: …
In the case of B2, the stoichiometry N (as a rule, a count of units in the complex or per binding partner) amounted to 2 in data set [2] and 6 in data set [1].
